The results in this text go back to patent US20230250158A1 (TALEM THERAPEUTICS, published 2023).

In experiment [1] the target is B.1.351 (S1). Description: ELISA, heat map. (In general: In an ELISA, binding on a coated surface is turned into a signal by an enzyme label.)
In experiment [2] the target is V367F. Description: ELISA, heat map.
In experiment [3] the target is K458R. As to the kind of experiment: ELISA, heat map.
In experiment [4] the target is V483A. As to the kind of experiment: ELISA, heat map.
The target of experiment [5] is E484K. Description: ELISA, heat map.
Experiment [6] has as its target N439K. As to the kind of experiment: ELISA, heat map.
Experiment [7] deals with N501Y. Description: ELISA, heat map.
Experiment [8] concerns the target A435S. As to the kind of experiment: ELISA, heat map.
Experiment [9] addresses G476S. Description: ELISA, heat map.
The target of experiment [10] is K417N. Description: ELISA, heat map.
In experiment [11] the target is W436R. As to the kind of experiment: ELISA, heat map.
Experiment [12] deals with Y453F. Description: ELISA, heat map.
Experiment [13] has as its target F342L. As to the kind of experiment: ELISA, heat map.
The target in experiment [14] is N354D. As to the kind of experiment: ELISA, heat map.
Experiment [15] concerns the target SARS-CoV-2 Spike trimer (recombinant, wild type) (SARS-CoV-2, UniProt P0DTC2 14-1213). As to the kind of experiment: ELISA on plate-adsorbed recombinant Spike.
Experiment [16] has as its target T1, SARS-CoV-2 Spike RBD (tagless) (SARS-CoV-2, UniProt P0DTC2 319-541).
In experiment [17] the target is T1, SARS-CoV-2 Spike RBD (tagless). Description: Octet BLI; tagless RBD as analyte over 23-H7-coated AHC sensors; 1:1 kinetic fit. Background: In BLI a coated tip is dipped into the sample, and binding shifts an interference pattern.

Where two headings read alike, the source gives them in different places.

B1: 22-D9 (antibody, V domains shown)
VH: QVQLVQSGAEVKKPGSSVNVSCKTSGGTFNTYSINWVRQAPGQGLEWMGEIIPIFDKPNYAQKFQGRVTITADESTSTAYMELTSLRSDDTAVYYCARGTGYYYGMDVWGQGTTVTVSS
VL: QSVLTQPPSVSGAPRQTVTISCFGSRSNIGNYPVNWYHQVPGKAPKVVVYYDDLLPSGISDRFSGYKSGTSASLTISGLRSEDEADYYCATWDDSLNVWVFGGGTKLTVL
notes: also called bin 4
By EC50 (read off the curve) is commonly meant the concentration that produces a half-maximal response. B1: the binding result in [1] is on record as “no binding”; in experiment [2], “binds”; in [3] it was “binds”; in experiment [4], “binds”; in experiment [5] it was “binds”; in [6] it was “binds”. In addition, the binding result in experiment [7], in [8], in experiment [9], in experiment [10], in [11] and in [12] was “binds” in each case. Further, the binding result in experiment [13] and in experiment [14] was “binds” in each case. Moreover, the “EC50 (read off the curve)” value in [15] was around 10 ng/mL.

B2: 23-H7 (antibody, V domains shown)
VH: QVQLVQSGAEVKLPGASMKVSCKASGYTFSTYYMHWVRQAPGQGPEWMGVIDPSGGTTSYAQKFHDRIAMTRDTSTSTAYLELSSLRSEDMAVYYCARGGFADAVDYWGQGTLVTVSS
VL: NFMLTQPHSVSGSPGKTVTISCTRNSGSIAGNYVQWYQQRPGSAPTTVIYEDNQRPSGVPDRFSGSIDSSSNSASLTISGLKTEDEADYYCQSYDASHLHVIFGGGTKVTVL
notes: also called bin 2
As a reminder, the Kd is the constant that tells how readily two partners part at equilibrium. Consider B2, for which the binding result in experiment [1], in experiment [2], in experiment [3], in [4], in experiment [5] and in experiment [6] was “binds” each time. Moreover, the binding result in [7], in experiment [8], in [9], in experiment [10], in experiment [11] and in experiment [12] was “binds” throughout. For the same molecule, the binding result in [14] was “binds”. For the same molecule, in [15], the concentration for a half-maximal effect (EC50 (read off the curve)) was around 2 ng/mL. For the same molecule, the dissociation constant Kd in [16] and in experiment [17] was 4 nM throughout.

B3: 23-H7 Fab (Fab, V domains shown)
VH: B2 VH
VL: B2 VL
The molecule B3 displayed a dissociation constant (Kd) in experiment [16] of 4.6 nM.

B4: 22-E7 (antibody, V domains shown)
VH: QVQLVESGGGVVQPGTSLRLSCAASGFTFNNYPMFWVRQAPGKGLEWLALISYDGNHKVYADSVKGRFTISRDNAKNTLYLQMHSLRAEDTALYYCASDLSGAEDSWGQGTLVTVSS
VL: QSALTQPASVSGSPGQSITISCTGTSSDVGGYNYVSWYQQHPGKAPKLLIYEVSNRPSGVSNRFSGSKSGNTASLTISGLQAEDEADYYCSSYTSSSTWVFGGGTKLTVL
notes: also called bin C
Regarding B4, the binding result in experiment [1] is given as “binds”.

B5: 2-A6 (antibody, V domains shown)
VH: QVTLRESGPALVKPTQTLTLTCTFSGFSLNTRGMSVSWIRQPPGKALEWLALIDWEDDKFYRTSLMTRLTISKDIFKNQVVLTMTNVDPVDTGTYYCARTYSVGVKYFGMDVWGQGTTVTVSS
VL: SSELTQDPAVSVALGQTVRITCQGDSLRNYYASWYRQEPGQAPILLIYGGNYRPSGIPDRFSGSSSGNTASLTITGAQAEDEADYYCNSRDSSGNHVVFGGGTKLTVL
notes: also called bin S2
Regarding B5, the binding result in experiment [1] is “no binding”.

B6: 22-F7 (antibody, V domains shown)
VH: QVQLVESGGGVVQPGRSLRLSCAASGFSFTNYGMHWVRQAPGKGLEWVAVISYDGSIKYYEDSLKGRFTVSRDNSKKTLYLQMNSLRAEDTAVYYCTRERGTGIDYWGLGTLVTVSS
VL: QSALTQPASVSGYPGQSITLSCTGTKSDIGAYNYVSWYQQHPGKAPKLMVYDVSNRPSGLSNRFSGSKSDNTASLTISGLQAEDEAHYYCSSYTTSGTVVFGGGTKVTVL
notes: also called bin C
Take B6: the binding result in experiment [1] is on record as “binds”.
